From publication PMC5801464, “Expanding Primary Metabolism Helps Generate the Metabolic Robustness To Facilitate Antibiotic Biosynthesis in Streptomyces” (mBio, 2018)
One block for each molecule: values may come before it.

What was measured:
[1] = target: T1, Pyk1 (Streptomyces coelicolor, UniProt Q9S2I9); assay: pyruvate kinase activity assay, purified enzyme; type: biochemical; settings: activator
T1 construct: E. coli codon-optimized gene; E. coli Origami B host
T1 sequence (Q9S2I9 1-478): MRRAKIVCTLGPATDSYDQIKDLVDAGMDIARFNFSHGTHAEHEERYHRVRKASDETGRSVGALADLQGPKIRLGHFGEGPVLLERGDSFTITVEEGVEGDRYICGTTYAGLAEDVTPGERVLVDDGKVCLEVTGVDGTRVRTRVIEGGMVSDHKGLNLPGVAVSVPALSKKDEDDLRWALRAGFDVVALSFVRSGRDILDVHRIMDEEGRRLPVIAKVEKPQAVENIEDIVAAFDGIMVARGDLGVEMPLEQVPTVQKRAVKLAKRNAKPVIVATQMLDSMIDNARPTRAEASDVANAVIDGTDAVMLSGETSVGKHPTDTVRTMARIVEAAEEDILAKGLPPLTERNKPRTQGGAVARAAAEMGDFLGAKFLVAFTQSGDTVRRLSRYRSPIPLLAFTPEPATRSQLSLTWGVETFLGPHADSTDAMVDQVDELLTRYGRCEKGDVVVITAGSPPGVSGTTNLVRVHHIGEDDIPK

[2] = target: T2, Pyk2 (Streptomyces coelicolor, UniProt Q9L299); assay: pyruvate kinase activity assay, purified enzyme, Hill or Michaelis-Menten fit; type: biochemical; settings: activator; PEP and ADP concentrations not told; read-out: No AMP / Pyk2
T2 construct: native gene; E. coli Rosetta host
T2 sequence (Q9L299 1-476): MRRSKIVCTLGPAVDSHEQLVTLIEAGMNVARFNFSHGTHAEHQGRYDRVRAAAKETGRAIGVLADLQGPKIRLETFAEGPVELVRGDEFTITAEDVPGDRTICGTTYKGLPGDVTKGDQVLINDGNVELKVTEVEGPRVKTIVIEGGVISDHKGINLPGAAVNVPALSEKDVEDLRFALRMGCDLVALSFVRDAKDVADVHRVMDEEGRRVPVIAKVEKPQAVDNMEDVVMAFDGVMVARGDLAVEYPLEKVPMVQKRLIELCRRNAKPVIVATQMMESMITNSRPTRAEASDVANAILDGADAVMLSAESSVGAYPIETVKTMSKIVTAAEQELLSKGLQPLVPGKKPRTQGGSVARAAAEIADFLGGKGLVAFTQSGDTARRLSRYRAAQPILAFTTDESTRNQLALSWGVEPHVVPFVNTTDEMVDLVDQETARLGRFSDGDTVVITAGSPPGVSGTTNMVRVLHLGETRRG
From the text: pyruvate kinase activity assay, purified enzyme, Hill or Michaelis-Menten fit on Pyk2

[3] = target: T1, Pyk1; assay: as above; type: biochemical; settings: activator; PEP and ADP concentrations not told; read-out: No AMP / Pyk1
From the text: pyruvate kinase activity assay, purified enzyme, Hill or Michaelis-Menten fit on Pyk1

[4] = substrate: C=C(OP(=O)(O)O)C(=O)O; assay: pyruvate kinase activity assay, purified enzyme, Hill fit; type: biochemical, Streptomyces coelicolor; settings: 1.5 mM ADP; no AMP; cooperative, Hill coefficient 3.7
From the text: pyruvate kinase activity assay, purified enzyme, Hill fit on Pyk1

[5] = substrate: Nc1ncnc2c1ncn2[C@@H]1O[C@H](COP(=O)(O)OP(=O)(O)O)[C@@H](O)[C@H]1O; assay: pyruvate kinase activity assay, purified enzyme, Michaelis-Menten fit; type: biochemical, Streptomyces coelicolor; settings: 5 mM PEP; no AMP; Michaelis-Menten-type kinetics
From the text: pyruvate kinase activity assay, purified enzyme, Michaelis-Menten fit on Pyk1

[6] = substrate: C=C(OP(=O)(O)O)C(=O)O; assay: pyruvate kinase activity assay, purified enzyme, Hill fit; type: biochemical, Streptomyces coelicolor; settings: 1.5 mM ADP; no AMP; cooperative, Hill coefficient 1.5
From the text: pyruvate kinase activity assay, purified enzyme, Hill fit on Pyk2

[7] = substrate: Nc1ncnc2c1ncn2[C@@H]1O[C@H](COP(=O)(O)OP(=O)(O)O)[C@@H](O)[C@H]1O; assay: pyruvate kinase activity assay, purified enzyme, Michaelis-Menten fit; type: biochemical, Streptomyces coelicolor; settings: 5 mM PEP; no AMP; Michaelis-Menten-type kinetics; remark: listed apart in the source
From the text: pyruvate kinase activity assay, purified enzyme, Michaelis-Menten fit on Pyk2

Molecule: O=P(O)(O)OC[C@H]1OC(O)[C@H](O)[C@@H]1O (stereo partly shown) [ribose-5-phosphate]
- pyruvate kinase activity assay, purified enzyme [1]: Pyk1 was also shown to be highly stimulated by ribose-5-phosphate

- EC50 [2]: 3800 µM
- EC50 [3]: 10 µM
Molecule: Nc1ncnc2c1ncn2[C@@H]1O[C@H](COP(=O)(O)O)[C@@H](O)[C@H]1O [AMP]

B1: Pyk1 (Streptomyces coelicolor A3(2)) (protein)
chain: T1 sequence (Q9S2I9 1-478)
notes: E. coli codon-optimized gene; E. coli Origami B host
- K0.5 [4]: 3.5 mM
- Vmax [4]: 14.1 µmol/min/mg
- kcat [4]: 350 s⁻¹
- kcat/Km [4]: 100000 M⁻¹ s⁻¹
- K0.5 [5]: 0.6 mM
- kcat/Km [5]: 1.59e+06 M⁻¹ s⁻¹

B2: Pyk2 (Streptomyces coelicolor A3(2)) (protein)
chain: T2 sequence (Q9L299 1-476)
notes: native gene; E. coli Rosetta host
- K0.5 [6]: 1.3 mM
- kcat/Km [6]: 14000 M⁻¹ s⁻¹
- K0.5 [7]: 0.3 mM
- kcat/Km [7]: 145000 M⁻¹ s⁻¹
